Where “and” joins values, the source holds several entries; their conditions need not be identical. Identical values can stand only once.
How the values were obtained:
[1] = molecular target: severe acute respiratory syndrome (SARS) coronavirus papain-like protease (PLpro), wild type (SARS coronavirus) (UniProt P0C6X7)
[2] = molecular target: severe acute respiratory syndrome (SARS) coronavirus papain-like protease (PLpro), wild type (SARS coronavirus) (UniProt P0C6X7); assay: inhibition of AMC substrate cleavage

## ISG15-AMC
[1]
  KM of ISG15-AMC cleavage: 15.9 µM
  apparent kcat/KM of ISG15-AMC cleavage (Michaelis-Menten kinetics): 598000 M⁻¹ s⁻¹

## Lys48-linked tri-ubiquitin (triUb^Lys48), free chain (from UniProt P0CG48 1-76) (complex)
[2]
  Ki: 10.6 µM and 10.1 µM and 4.08 µM

## monoUb-AMC (from UniProt P0CG48 1-76)
[1]
  KM of monoUb-AMC cleavage: 15.1 µM
  apparent kcat/KM of monoUb-AMC cleavage (Michaelis-Menten kinetics): 33300 M⁻¹ s⁻¹

## triazole-linked diUb^Lys48-AMC (from UniProt P0CG48) (complex)
[1]
  KM of triazole-linked diUb^Lys48-AMC cleavage: 33.4 µM
